According to patent publication US5882644A, “Monoclonal antibodies specific for the platelet derived growth factor β receptor and methods of use thereof” (Protein Design Labs, Inc., priority 1996, dated 1999):
Substitutions are numbered along the chain they refer to. “Also recorded” adds a separate entry of the source. One block for each molecule: values may come before it.

What was measured:
[1] = molecular target: T1, PDGF-R β expressed on transfectant cells (CHO PDGF-R β transfectants, CHO C4 line); Sp2/0 PDGF-R β … (human, UniProt P09619); assay: competition with 125I-labeled M4TS.11 on Sp2/0 PDGF-R β transfectant cells
Protocol: Figure 11: FIG. 11 is a graph depicting competitive binding of muM4TS.11 (closed squares) and HuM4TS.11 (open squares) and HuM4TS.11(gamma 1) (open diamonds). Increasing concentrations of cold competitor antibodies were incubated with the Sp2/0 transfectants expressing PDGF-R β in the presence of radiolabeled tracer muM4TS.11, and the ratio of bound/free radioactivity determined. The results shown are mean values of triplicate samples.
To assess the ability of HuM4TS.11 to compete with the muAb for receptor binding, increasing concentrations of the two antibodies were respectively incubated on ice for one hour with Sp2/0 PDGF-R β transfectant cells and a fixed amount of tracer ^125I-labeled M4TS.11. The sample tubes were processed as in the blocking experiment described. HuM4TS.11 competed less well than muM4TS.11 (FIG. 11).

[2] = test system: CHO transfectant cell line expressing PDGF-R β (CHO C4); assay: Inhibition of PDGF BB-induced proliferation (3H-thymidine) of CHO C4 cells; type: cell-based, Chinese hamster
Protocol: To determine the ability of muM4TS.11 and muM4TS.22 to block PDGF-mediated proliferation, a CHO transfectant cell line expressing PDGF-R β (CHO C4) was generated, as described above. Proliferation of this line, as measured by incorporation of ^3 H-thymidine by DNA synthesis, is stimulated several-fold by PDGF BB. The CHO PDGF-R β transfectants were plated in a 96-well tissue culture plate at about 50,000 cells/well in Ham's F-12+10% FCS and incubated for 1-2 days. The medium was removed, and the cells were washed once with serum-free medium (Ham's F-12+1 mg/ml BSA) and incubated in this media for 1-2 days to put them in a quiescent state. The appropriate amount of antibody in serum-free medium was added, and after 1-3 hours, 50 ng/ml PDGF BB was added. After overnight incubation, 1 μCi ^3 H-thymidine was added, and after a final 4 hour incubation, the cells were harvested using a PHD cell harvester (Cambridge Technology) and analyzed with a scintillation counter.

[3] = test system: PDGF-R β; assay: Competition with 125I-labeled murine antibody tracer on Sp2/0 PDGF-R β transfectant cells; type: binding, human; settings: Sp2/0 PDGF-R β transfectants; for binding affinity Ka: calculated from competitive binding data
Protocol: (§1) To assess the ability of HuM4TS.22 to compete with muM4TS.22 for receptor binding, increasing concentrations of the two antibodies were respectively incubated on ice for one hour with Sp2/0 PDGF-R β transfectant cells and a fixed amount of tracer ^125 I-labeled muAb. The sample tubes were processed as in the blocking experiment just described.
To assess the ability of HuM4TS.11 to compete with the muAb for receptor binding, increasing concentrations of the two antibodies were respectively incubated on ice for one hour with Sp2/0 PDGF-R β transfectant cells and a fixed amount of tracer ^125 I-labeled M4TS.11. The sample tubes were processed as in the blocking experiment described. […] The binding affinities calculated from the data were: Ka =5×10^8 M^-1 for the muAb and 3×10^7 M^-1 for the HuAb.

[4] = test system: human primary fibroblast cell line AG1523B; assay: Inhibition of PDGF BB-stimulated proliferation of AG1523B fibroblasts; type: cell-based; settings: 300 ng/ml PDGF BB
[5] = test system: PDGF-R β; assay: Competitive binding with 125I-PDGF BB on transfectant cells expressing PDGF-R β; set-up: species or system human; settings: 4° C.
Protocol: To determine the ability of muM4TS.11 and muM4TS.22 to block binding of PDGF BB to PDGF-R β, the following competitive binding experiments were performed. Transfectant cells expressing PDGF-R β were harvested, washed twice with cold DMEM, and resuspended at 10^6 cells/ml in DMEM. The assay was carried out in triplicate by incubating 100 μl of the cell suspension with either: 1) no antibody (to determine total binding); 2) varying concentrations of antibody; or 3) 100 ng cold PDGF BB (to saturate specific binding sites and determine non-specific binding) for 15 minutes at 4° C. Each sample received 1.0 ng ^125 I-labeled PDGF BB, and was incubated for an additional 60 min at 4° C. Unbound ^125 I-labeled PDGF BB was separated from that bound to the cell by layering the sample over a mixture of 80% dibutylphthalate, 20% olive oil in a microfuge tube, and microfuging briefly to pellet the cells through the oil mixture. The tubes were placed in dry ice to freeze the contents, the tip of the tube containing the cell pellet was cut off into a vial, and radioactivity was determined in a gamma counter.
To assess the ability of HuM4TS.22 to block the binding of PDGF BB to its receptor, competitive binding experiments of HuM4TS.22 with ^125 I-PDGF BB were performed according to the method described in Example 3.
To assess the ability of muM4TS.11 and HuM4TS.11 to block the binding of PDGF BB to the PDGF β receptor, competitive binding experiments of these antibodies with ^125 I-PDGF BB were performed according to the method described in Example 3.

[6] = test system: PDGF-R β expressed on the cell membrane; assay: Flow cytometry binding to CHO PDGF-R β transfectant cells; set-up: species or system human; settings: 0.1-1 μg/ml antibody; CHO PDGF-R β transfectants vs untransfected CHO
Protocol: The cells were washed once in cold PBS and resuspended in 50 μl of PBS containing 10 μg/ml FITC-conjugated goat anti-mouse IgG and incubated for 30 min. After another wash, the cells were fixed by resuspension in 0.25 ml of paraformaldehyde in PBS, and analyzed for fluorescence by flow cytometry on a FACScan (Becton Dickinson).

[7] = test system: PDGF-R β deletion fusion proteins; assay: ELISA epitope mapping with PDGF-R β deletion fusion proteins; type: binding, human
From the text: To localize the binding sites of the M4TS antibodies on the PDGF-R, a series of PDGF-R β deletion mutants, each consisting of one or more adjacent domains of the extracellular portion of the receptor, was constructed by standard methods including PCR. The deletion constructs were each cloned into an expression plasmid (FIG. 13A) where they were fused to the constant region of the human lambda-1 immunoglobulin light chain, to facilitate detection in ELISA. The constructs were as follows (see FIG. 13B):
These PDGF-R β deletion fusion proteins were transiently expressed, by transfecting 10 μg of the respective expression plasmids into approximately 10^7 S194 mouse myeloma cells (ATCC TIB 19) using the DEAE-dextran method in accordance with the method described by Queen et al. (1984) Mol. Cell. Biol. 4:1042. After the transfected cells had died (4-5 days) and been removed by centrifugation, the culture supernatants containing the PDGF-R β deletion proteins were used in ELISA assays, 100 μl/well. First, the relative levels of the various PDGF-R β deletion proteins were measured in an ELISA where the plate was coated with goat anti-human lambda antibody (Tago) and the proteins detected with HRP-conjugated goat anti-human lambda antibody. […] To determine the ability of the antibodies to bind to each deletion protein, an ELISA was performed in which goat anti-human lambda antibody was used to coat the plate, followed by the cell supernatant and then 0.1 μg of the appropriate antibody, and then bound antibody detected with HRP-conjugated goat-anti-mouse Ig or goat-anti-human Ig antibody as appropriate (Tago). As a positive control, purified soluble PDGF-R β (Example 1) was coated directly on certain wells of the plate (denoted D1-5 in FIG. 14).

[8] = molecular target: T1, PDGF-R β expressed on transfectant …; assay: competition with 125I-labeled muM4TS.22 on Sp2/0 PDGF-R β transfectant cells
Protocol: Figure 5: FIG. 5 is a graph depicting competitive binding of muM4TS.22 (closed circles) and HuM4TS.22 (open circles). Increasing concentrations of cold competitor antibodies were incubated with the Sp2/0 transfectants expressing PDGF-R β in the presence of radiolabeled tracer muM4TS.22, and the ratio of bound/free radioactivity determined. The results shown are mean values of triplicate samples.
as §1, with “^125I-labeled” for “^125 I-labeled”, “described. MuM4TS.22 and HuM4TS.22 competed with equal efficiencies (FIG. 5).” for “described.”

Ka [1]: 3e+07 M⁻¹
B1: HuM4TS.11 (antibody, V domains shown)
VH: QVQLVQSGAEVKKPGASVKVSCKASGYTFTNCWMHWVRQAPGQGLEWIGYINPTTGYSEYNQNFKDKATITADKSTSTAYMELSSLRSEDTAVYYCTSNYGHYDWFGNWGQGTLVT
VL: DIQMTQSPSSLSASVGDRVTITCRASESVDSYGNSFMHWYQQKPGKAPKLLIYRASNLESGIPSRFSGSGSRTDFTLTISSLQPEDVATYYCQQSNEDPPTFGQGTKVEIK

B2: HuM4TS.11(gamma1): same variable domains as HuM4TS.11 but a gamma1 rather than gamma4 heavy chain constant region (antibody, V domains shown)
VL: B1 VL
VH: B1 VH
inhibition of PDGF-mediated proliferation compared with another antibody [2]: about equally well
competition with labeled murine antibody for receptor binding / binding affinity, in words [3]: higher binding affinity than HuM4TS.11
binding affinity Ka [3]: 1.6e+08 M⁻¹

B3: HuM4TS.11.2: HuM4TS.11 version in which a few additional human framework residues were changed to their murine counterparts (antibody, V domains shown)
VL: B1 VL with Q3V, M4L, S69G
VH: B1 VH with R38K, A40R, I70L, M81I
inhibition of PDGF-mediated proliferation compared with another antibody [2]: the same level of inhibition of PDGF-stimulated cell proliferation as does HuM4TS.11
competition with labeled murine antibody for receptor binding / binding affinity, in words [3]: the same binding characteristics for PDGF-R β

binding to deletion proteins containing only first through second domains ([7]; 0.1 μg antibody): do not bind
binding to protein D1-3 ([7]; 0.1 μg antibody): do bind to protein D1-3
binding to protein D3 (third domain only) ([7]; 0.1 μg antibody): bind to the protein D3
B4: muM4TS.22: murine monoclonal antibody to PDGF-R β, variable regions SEQ ID NOS:2 and 4; epitope in third extracellular domain (antibody, V domains shown)
VL: MRVLAELLGLLLFCFLGVRCDIQMNQSPSSLSASLGDTITITCHASQNINVWLSWYQRKPGNIPKLLIYKASNLHTGVPSRFSGSGSGTGFTLTISSLQPEDIATYYCQQGQSFPFTFGSGTKLEIK
VH: MAVLALLLCLVTFPSCALSQVQLKESGPGLVAPSQSLSITCTVSGFSLTNYAINWVRQPPGQGLEWLGIIWTGGGTSYNSALKSRLSISKDNSKSQVFLKMNSLQTDDTARYYCARTGTRGYFFDYWGQGTTLTVSS
inhibition of PDGF BB-induced proliferation ([2]; 50 ng/ml PDGF BB, sufficient antibody concentration): completely inhibited proliferation of the cells induced by PDGF BB; also recorded: almost completely inhibited the stimulation of proliferation by PDGF BB
inhibition of stimulation of proliferation by PDGF BB [4]: effectively inhibited the stimulation of proliferation by PDGF BB
blocking of 125I-PDGF BB binding to PDGF-R β [5]: competitively blocked binding of PDGF BB to PDGF-R β; also recorded: did have the ability to block binding of PDGF BB to PDGF-R β
specific binding to membrane PDGF-R β by flow cytometry [6]: specifically bound to CHO PDGF-R β transfectant cells but not to untransfected CHO cells
competition with labeled murine antibody for receptor binding / binding affinity, in words [3]: competed with equal efficiencies
binding affinity Ka [3]: 2.6e+08 M⁻¹
binding to protein D5 (fifth domain only) ([7]; separate experiment): none of muM4TS.11 and HuM4TS.11, muM4TS.22 and HuM4TS.22 bound to it

Ka [8]: 2.6e+08 M⁻¹
B5: muM4TS.22 (antibody, V domains shown)
VH: QVQLKESGPGLVAPSQSLSITCTVSGFSLTNYAINWVRQPPGQGLEWLGIIWTGGGTSYNSALKSRLSISKDNSKSQVFLKMNSLQTDDTARYYCARTGTRGYFFDYWGQGTTLTVSS
VL: DIQMNQSPSSLSASLGDTITITCHASQNINVWLSWYQRKPGNIPKLLIYKASNLHTGVPSRFSGSGSGTGFTLTISSLQPEDIATYYCQQGQSFPFTFGSGTKLEIK

Ka [8]: 4e+08 M⁻¹
B6: HuM4TS.22 (antibody, V domains shown)
VH: QVQLQESGPGLVKPSETLSLTCTVSGFSLTNYAINWVRQPPGKGLEWLGIIWTGGGTSYNSALKSRLTISKDTSKNQVSLKLSSVTAADTAVYYCARTGTRGYFFDYWGQGTLVTVSS
VL: B5 VL with N5T, L15V, T18R, I19V, R38Q, N42K, I43A, S100G, L104V
